One assay concerns the target T1, Rat ANG2 (rat, UniProt O35462 19-496, limits assumed).
T1 sequence (looked up): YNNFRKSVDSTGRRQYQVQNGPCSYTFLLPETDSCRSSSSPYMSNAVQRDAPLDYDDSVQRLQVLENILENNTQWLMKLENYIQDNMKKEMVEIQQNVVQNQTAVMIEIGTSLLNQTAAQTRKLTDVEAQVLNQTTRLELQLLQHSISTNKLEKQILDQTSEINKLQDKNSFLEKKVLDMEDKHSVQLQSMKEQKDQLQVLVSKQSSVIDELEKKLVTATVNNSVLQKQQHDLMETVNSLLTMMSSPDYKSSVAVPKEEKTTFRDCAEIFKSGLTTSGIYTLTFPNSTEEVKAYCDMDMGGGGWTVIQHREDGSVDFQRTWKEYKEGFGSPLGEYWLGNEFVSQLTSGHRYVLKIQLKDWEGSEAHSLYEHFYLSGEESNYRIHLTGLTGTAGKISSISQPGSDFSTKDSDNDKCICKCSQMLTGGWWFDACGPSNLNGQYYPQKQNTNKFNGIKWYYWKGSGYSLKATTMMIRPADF
The assay is described as follows: SPR, Biacore T200, antibody captured on Protein G chip. As for the experimental part: (§1) The antibody was diluted to 1 μg/mL and was captured onto channel 2 for 30 s, and channel 1 was the blank control channel. The gradient-diluted Human ANG2, Rhesus ANG2, Rabbit ANG2, Rat ANG2 and Mouse ANG2 were sequentially injected into channels 1 and 2 of the chip, from low to high concentrations (0-32 nM), at a flow rate of 30 μL/min, with one concentration per cycle, and with 180 s association time and 1200 s dissociation time at 25° C. Finally, the chip was regenerated using Glycine pH 1.5 at 30 μL/min for 30 s. The affinity assay was repeated three times.

Another assay has as its target T2, Rhesus ANG2 (rhesus, UniProt F6QXG0 19-496).
T2 sequence: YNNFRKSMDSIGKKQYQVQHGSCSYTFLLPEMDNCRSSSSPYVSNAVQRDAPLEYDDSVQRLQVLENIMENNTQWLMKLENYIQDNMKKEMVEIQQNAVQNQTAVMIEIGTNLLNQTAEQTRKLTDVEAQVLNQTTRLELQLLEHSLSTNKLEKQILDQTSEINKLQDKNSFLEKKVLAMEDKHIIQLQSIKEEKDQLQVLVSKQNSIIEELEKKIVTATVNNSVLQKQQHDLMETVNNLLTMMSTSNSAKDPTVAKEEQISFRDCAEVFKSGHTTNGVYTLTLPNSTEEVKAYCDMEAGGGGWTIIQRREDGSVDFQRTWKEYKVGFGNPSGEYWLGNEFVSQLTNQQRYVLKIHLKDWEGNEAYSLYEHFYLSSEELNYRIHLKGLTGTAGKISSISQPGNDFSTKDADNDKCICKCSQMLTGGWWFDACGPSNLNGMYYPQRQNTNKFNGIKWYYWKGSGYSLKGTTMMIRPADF
Put plainly: SPR, Biacore T200, antibody captured on Protein G chip, experiment 1. The protocol: as §1

The target in a further assay is T3, human Ang2 (human, UniProt O15123 19-496, limits assumed).
T3 construct: also called hAng2; h Ang2
T3 sequence: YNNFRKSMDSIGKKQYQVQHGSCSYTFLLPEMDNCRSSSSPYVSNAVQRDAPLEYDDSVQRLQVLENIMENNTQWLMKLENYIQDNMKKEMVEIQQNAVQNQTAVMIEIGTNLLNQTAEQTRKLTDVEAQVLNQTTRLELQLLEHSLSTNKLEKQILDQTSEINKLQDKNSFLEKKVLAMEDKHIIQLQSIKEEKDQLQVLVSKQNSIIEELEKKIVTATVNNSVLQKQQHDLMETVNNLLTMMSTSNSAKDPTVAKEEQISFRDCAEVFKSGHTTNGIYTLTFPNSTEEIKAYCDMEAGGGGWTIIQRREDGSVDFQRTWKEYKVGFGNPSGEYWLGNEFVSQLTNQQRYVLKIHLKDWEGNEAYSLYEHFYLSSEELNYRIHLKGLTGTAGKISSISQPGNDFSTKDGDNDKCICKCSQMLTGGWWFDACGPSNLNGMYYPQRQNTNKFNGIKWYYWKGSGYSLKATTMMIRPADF
The assay is described as above. The protocol: as §1

The target in assay [1] is T4, recombinant biotinylated hAngiopoietin-2 protein (R&D, Cat. No.: BT623B/CF) (human, UniProt O15123 19-496, limits assumed, biotinylated (sites not given)).
T4 construct: Bought protein; also called Biotin Ang2; human biotin Ang2 protein
T4 sequence: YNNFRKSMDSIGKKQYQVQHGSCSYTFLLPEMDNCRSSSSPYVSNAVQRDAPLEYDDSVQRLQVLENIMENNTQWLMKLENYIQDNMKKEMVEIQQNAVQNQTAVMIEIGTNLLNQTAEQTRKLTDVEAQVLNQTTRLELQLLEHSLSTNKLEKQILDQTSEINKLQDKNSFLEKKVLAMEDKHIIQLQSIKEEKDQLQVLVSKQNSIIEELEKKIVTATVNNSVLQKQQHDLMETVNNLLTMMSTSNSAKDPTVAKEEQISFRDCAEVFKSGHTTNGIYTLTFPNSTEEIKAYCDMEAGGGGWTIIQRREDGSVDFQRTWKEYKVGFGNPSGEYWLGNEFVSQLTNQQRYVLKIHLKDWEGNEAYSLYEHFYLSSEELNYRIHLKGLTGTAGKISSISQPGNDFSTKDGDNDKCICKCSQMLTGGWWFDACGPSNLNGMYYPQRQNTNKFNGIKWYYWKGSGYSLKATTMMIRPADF
The assay is described as follows: blocking ELISA: antibody titrated against biotinylated hAng2 (300 ng/ml final); blocked binding to coated hTie2 protein; Avidin-HRP detection. The protocol: The abilities of 81H10, 86E9, 107H7, hz81H10.4, Amhz81H10.4.30, Amhz81H10.4.49, and the control antibodies Nesvacumab and faricimab to block the binding of human Ang2 to hTie2 were determined by ELISA. Faricimab is a bispecific antibody drug undergoing a clinical trial and developed by Roche, which targets both angiopoietin-2 (Ang-2) and VEGF-A.
Then the plate was blocked using 5% BSA for 1 h. The biotinylated antigen, recombinant biotinylated hAngiopoietin-2 protein (R&D, Cat. No.: BT623B/CF), was diluted to 600 ng/ml, and was added into the microtiter plate at 50 μl/well. The antibodies (81H10, 86E9, 107H7, hz81H10.4, Amhz81H10.4.30 and Amhz81H10.4.49) prepared as described above were gradiently diluted with a total of 8 or 12 dilution points starting from the highest concentration, and then added to the microtiter plate at 50 μl/well, and incubated in PBS on ice for 30 min. Then, 50 ul of antigen solution was added to the microtiter plate, in which the final antigen concentration was 300 ng/ml. The plate containing the antigen-antibody mixture was incubated for 90 min. After three washes with PBS, the supernatant was discarded, and Avidin-HRP (Invitrogen) diluted at 1:10000 was added at 100 μl/well, then incubated at room temperature for 30 min. PBS was used to wash the plate six times. Then TMB chromogen solution (solarbio) was added at 100 ul/well to allow for chromogenic reaction for 1 min, then the reaction was terminated with the addition of stop solution (solarbio) at 100 ul/well.
A general note: An ELISA detects its analyte on a solid surface through an enzyme-linked reagent.

B1: humanized antibody hz81H10.4 (antibody, human IgG1, kappa, V domains shown)
VH: EVQLVESGGGLVKPGGSLRLSCAASGFTFSNYWMNWVRQAPGKGLEWVAEIRLKSNNYATHYAESVKGRFTISRDVSKNTVYLQMNSLKTEDTAVYYCTDTAPFAYWGQGTLVTVSS
VL: DIQMTQSPSSLSASVGDRVTITCKASQDVGTDVAWYQQKPGKAPKLLIYWASTRHTGVPSRFSGSGSGTDFTLTISSLQPEDFATYYCQQYSSYPLTFGGGTKVEIKR
notes: also called IBI335
A word on the Kd: it is the free concentration of one partner at which half of the binding sites on the other are occupied at equilibrium, for simple one-to-one binding. Read a high Kd as weaker binding. By koff is commonly meant the rate constant with which the complex falls apart. What is called kon is a measure of how fast the partners come together. Broadly, the IC50 is the concentration that gives 50% inhibition. Consider B1, for which, in the assay with Rat ANG2, the binding result was “no binding (tested: 0-32 nM)”. Moreover, in the assay with Rhesus ANG2, the Kd worked out at 0.183 nM, the koff was 4.87e-05 s⁻¹ and the kon came to 266000 M⁻¹ s⁻¹. In the assay with human Ang2, this molecule had a Kd of 0.0694 nM, a koff of 1.74e-05 s⁻¹ and a kon of 250000 M⁻¹ s⁻¹. For the same molecule, in assay [1], the IC50 was 0.728 nM.
